Data reported in the supplement of paper PMC9732359.
± gives the uncertainty stated by the source.

Assay: protein stability index of a GFP-peptide fusion (yeast GPS) (PSI 1-4); higher = more stable; sorted into four equal gates, so the index is relative within each strain
In short: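 Sequencing reads from sorted gates were used to score each peptide. The library consisted of tiled 17-residue yeast protein peptides fused downstream of GFP on a Cherry-expressing plasmid, pooled and carried in yeast. Mid-log cultures in leucine-free medium were split into four equal gates by GFP/Cherry ratio, and each gate's plasmids were PCR-amplified and Illumina-sequenced. The protein stability index adds up, over all gates, the read frequency multiplied by the gate number.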

| Sequence | protein stability index (doa10∆) | protein stability index (pdr5∆) | protein stability index (san1∆) | protein stability index (ubr1∆) |
| --- | --- | --- | --- | --- |
| KAFTNWNKRDFMAFINA [ISW2] | 1.26 ± 0.078 | 1.25 ± 0.091 | 1.25 ± 0.16 | 1.16 ± 0.062 |
| NEKFEIELLSLDDDSIV [SRB4] | 2.58 ± 0.096 | 3.07 ± 0.093 | 2.72 ± 0.081 | 3.1 ± 0.1 |
| VKKASGEIVSINQINEA [RPL20A] | 2.89 ± 0.1 | 2.82 ± 0.092 | 2.81 ± 0.062 | 2.79 ± 0.066 |
| EKLTLVTLSEIYNELSY [CSN9] | 1.48 ± 0.047 | 1.66 ± 0.036 | 1.57 ± 0.073 | 1.49 ± 0.046 |
| SKLKEEEAALLIKERQE [ESC2] | 2.85 ± 0.074 | 2.88 ± 0.065 | 2.83 ± 0.043 | 2.9 ± 0.054 |
| VFENYVKKTGENEISSL [CDC53] | 3.14 ± 0.069 | 2.74 ± 0.072 | 2.9 ± 0.07 | 3.15 ± 0.042 |
| AQSVGCRVDFKNPHDII [RPL12A] | 2.15 ± 0.061 | 2.4 ± 0.078 | 2.23 ± 0.12 | 2.32 ± 0.1 |
| QLNEKLVGRLRKCETQK [YCS4] | 2.03 ± 0.086 | 1.44 ± 0.062 | 2.22 ± 0.1 | 2 ± 0.061 |
| KYMVKGGLSGEESIKIY [UBP6] | 2.32 ± 0.13 | 2.47 ± 0.1 | 2.36 ± 0.093 | 2.67 ± 0.07 |
| KKNNAASELANPYSSYV [YAR002W/NUP60] | 2.99 ± 0.062 | 3.02 ± 0.047 | 2.98 ± 0.047 | 2.83 ± 0.054 |
| ENHNGQSISNENDVKPI [SWI3] | 2.07 ± 0.054 | 1.83 ± 0.051 | 2.48 ± 0.069 | 2.48 ± 0.045 |
| IKIKSLEYEISKLKKET [YIL149C/MLP2] | 2.97 ± 0.26 | 2.97 ± 0.096 | 2.99 ± 0.075 | 3.06 ± 0.07 |
| NTSSLQSFQNPFTASQS [YIL149C/MLP2] | 2.36 ± 0.05 | 2.02 ± 0.038 | 2.45 ± 0.048 | 2.36 ± 0.034 |
| HKDSFYDRATLTQLLSM [RPO31] | 1.79 ± 0.066 | 2.09 ± 0.062 | 2.09 ± 0.071 | 1.35 ± 0.04 |
| DRRKARKAYFTAPSSQR [RPL26A] | 2.59 ± 0.069 | 2.49 ± 0.091 | 2.76 ± 0.057 | 2.59 ± 0.068 |
| LQVSEKDLFELERYYKE [ARP7] | 3.14 ± 0.085 | 3.23 ± 0.077 | 3.48 ± 0.14 | 3.46 ± 0.065 |
| GAFTIALAYAGTGNNSA [RPN2] | 2.09 ± 0.068 | 2.32 ± 0.083 | 1.99 ± 0.099 | 2.15 ± 0.053 |
| EKKAASAKQTAPNNSNG [MED7] | 2.94 ± 0.15 | 3 ± 0.13 | 2.95 ± 0.14 | 2.41 ± 0.24 |
| TPLFPIDRNSTILYLNV [IRR1] | 2.71 ± 0.083 | 1.87 ± 0.072 | 2.93 ± 0.092 | 2.69 ± 0.098 |
| VRLQRQKKILSIRLKVP [RPL8B] | 1.5 ± 0.032 | 1.29 ± 0.032 | 1.27 ± 0.055 | 1.25 ± 0.025 |
| GRDKHALSLLYHLLNYD [SSN3] | 2.91 ± 0.074 | 2.92 ± 0.057 | 2.94 ± 0.054 | 3.04 ± 0.064 |
| FAEENITHKLTKNDAGS [BRR2] | 3.26 ± 0.084 | 3.22 ± 0.07 | 2.88 ± 0.055 | 3.46 ± 0.1 |
| LKWIDTASKFGKGRFQT [RPL3] | 3.34 ± 0.11 | 3.06 ± 0.094 | 3.11 ± 0.071 | 3.09 ± 0.065 |

| Sequence | protein stability index (doa10∆) | protein stability index (pdr5∆) | protein stability index (san1∆) | protein stability index (ubr1∆) |
| --- | --- | --- | --- | --- |
| EVAQLGSLACDTADEAK [RPB4] | 3.49 ± 0.15 | 3.28 ± 0.13 | 3.28 ± 0.17 | 2.73 ± 0.11 |
| VALPPGSNYNPYFPGGS [CYT1] | 2.32 ± 0.058 | 2.81 ± 0.064 | 2.65 ± 0.067 | 2.64 ± 0.036 |
| MVGQQYSSAPLRTVKEV [RPO21] |  | 1.92 ± 0.27 |  |  |
| IIMHKDVEIGRMPIMLR [RET1] | 3.29 ± 0.26 | 3.18 ± 0.16 | 2.98 ± 0.079 | 2.72 ± 0.16 |
| EIKLLEISCKQWEISNM [CSI1] |  | 3.44 ± 0.27 |  | 3.55 ± 0.23 |
| SSAKRSKNTAVSKVQKR [SRP72] | 2.25 ± 0.11 | 2.77 ± 0.11 | 2.09 ± 0.11 | 2.32 ± 0.069 |
| KRAFTKKVASANATAAE [RPL16A] | 2.73 ± 0.068 | 2.69 ± 0.06 | 2.82 ± 0.04 | 2.55 ± 0.037 |
| GEMVGVLAAQSIGEPAT [RPO21] | 2.36 ± 0.087 | 2.55 ± 0.073 | 2.38 ± 0.066 | 2.58 ± 0.088 |
| LPVKHPELFESLGIAQP [RPT6] | 2.65 ± 0.074 | 3.01 ± 0.039 | 2.55 ± 0.077 | 2.73 ± 0.054 |
| KKACIIFFDEIDAVGGA [RPT1] | 2.39 ± 0.052 | 2.67 ± 0.054 | 2.81 ± 0.055 | 2.73 ± 0.038 |
| HFNGIRRLDALVEKVYA [ITC1] | 3.65 ± 0.11 | 2.77 ± 0.068 | 1.94 ± 0.28 | 2.95 ± 0.089 |
| PKSSPLKKNNYNSFPHS [SIR4] | 2.79 ± 0.099 | 3.08 ± 0.076 | 3.07 ± 0.046 | 3.06 ± 0.039 |
| YWQYKAGIPIGLKRSQL [SWP82] | 1.7 ± 0.13 | 1.57 ± 0.081 | 1.69 ± 0.15 | 1.49 ± 0.049 |
| KNIPKTRYNRDYMLSMA [SNU114] | 1.94 ± 0.054 | 2.4 ± 0.054 | 2.9 ± 0.056 | 1.87 ± 0.039 |
| ATFLLTDIKDTLTKISM [MCD1] | 3.03 ± 0.13 | 3.14 ± 0.13 | 2.88 ± 0.099 | 3.17 ± 0.08 |
| YQMHIKTSKDIAVLRSK [FAS1] | 2.25 ± 0.051 | 2.14 ± 0.062 | 2.3 ± 0.062 | 2.46 ± 0.072 |
| TKANDKNESATINEMMK [FAS2] | 3.1 ± 0.084 | 3.17 ± 0.094 | 3.03 ± 0.062 | 3.11 ± 0.057 |
| SEVLVDTLDSKSNGSSD [ISW2] | 3.07 ± 0.07 | 3.15 ± 0.066 | 3.11 ± 0.054 | 3.04 ± 0.058 |
| KLVRDAFALAKEKAPTI [RPT5] | 2.56 ± 0.072 | 2.49 ± 0.09 | 2.94 ± 0.083 | 3.08 ± 0.083 |
| VKRYRLAPTQLSAEYLV [SIN4] | 2.44 ± 0.062 | 2.23 ± 0.056 | 2.3 ± 0.067 | 2.71 ± 0.043 |
| DDYSNLKREERQGLIHQ [SMC3] | 2.21 ± 0.2 | 2.6 ± 0.1 | 1.96 ± 0.21 | 2.7 ± 0.11 |
| LEDFENFKGLAKEKERM [YIL149C/MLP2] | 3.41 ± 0.075 | 3.51 ± 0.085 | 3.42 ± 0.054 | 3.35 ± 0.083 |
